What was measured:
[1] = biological target: bRSV RB94 DSCav1 (bovine respiratory syncytial virus, strain RB94) (UniProt P23728); test: biolayer interferometry Octet binding analysis
[2] = biological target: RB94 DS-CAV1 T369C-T455C Long; test: ELISA, variant from culture supernatant on Ni-NTA plate
[3] = biological target: RB94 site 0 hRSV DS-Cav1 Long FdPL; test: as above
[4] = biological target: 391-2-DS-Cav1_ sc9_S485C-A490C; test: as above
[5] = biological target: 391-2-DS-Cav1-sc9 99C-361C; test: as above
[6] = biological target: sc9-10_DS-CAV1_bRSV(RB94)_Fd_hp1_fp1_ig1; test: as above
[7] = biological target: RB94 sc9 DS-CAV1 N183GC-N428C L373R; test: as above
[8] = biological target: RB94 site 0 hRSV bovSurf DS-Cav1-BZGJ9 Long FdPL; test: as above
[9] = biological target: 391-2-DS-Cav1-sc9deleteFS 98C-362C; test: as above
391-2-DSCav1- F-SC_7R = test: as above
391-2-DS-Cav1-IP-5 = test: as above
391-2-DS-Cav1-IP-4 = test: as above
[10] = biological target: 391-2-DS-Cav1-sc9 100C-361C; test: as above
391-2-DS-Cav1-BZGJ9_gyc1 = test: as above
[11] = biological target: 391-2 sc9 DS-Cav1 98C-362C; test: as above
[12] = biological target: RB94 sc9 DS-CAV1 A149C-Y458C L373R Long; test: as above
[13] = biological target: 391-2-site 0 hRSV DSCav1-BZGJ9 Long; test: as above
[14] = biological target: 391-2-DS-Cav1_ S398C-S485C; test: as above
[15] = biological target: sc9-10_DS-CAV1_bRSV(RB94)_Fd_hp2_ig1; test: as above
[16] = biological target: 391-2-DS-Cav1-BZGJ9 Long S190V; test: as above
391-2wt-F_SC_11R = test: as above
391-2-DS-Cav1-BZGJ9 Long = test: as above
[17] = biological target: 391-2-DS-Cav1-sc9deleteFS 99C-361C; test: as above
[18] = biological target: 391-2 hu/bov-DS-Cav1-BZGJ9 Long; test: as above
[19] = biological target: RB94 sc9 DS-CAV1 A149C-Y458C L373R Long K226L; test: as above
[20] = biological target: RB94 dscav1T369C-T455C Long S190V; test: as above
[21] = biological target: sc9-10_DS-CAV1_bRSV(RB94)_Fd_hp2_fp1_ig1; test: as above
[22] = biological target: sc9-10_DS-CAV1_bRSV(RB94)_Fd_pm1_fp2_ig1; test: as above
[23] = biological target: RB94 site 0 hRSV bovSurf DS-Cav1 Long FdPL; test: as above
391-2-DS-Cav1-BZGJ9_gyc7 = test: as above
[24] = biological target: 391-2-DS-Cav1_ sc9_I28C-G464C; test: as above
[25] = biological target: sc9-10_DS-CAV1_bRSV(RB94)_Fd_hp1_fp2_ig1; test: as above
[26] = biological target: 391-2-DS-Cav1_ sc9_S398C-S485C; test: as above
391-2wt_F-SC_12R core = test: as above
[27] = biological target: 391-2-DS-Cav1_ sc9_T449C-V459C; test: as above
[28] = biological target: RB94 sc9 DS-CAV1 N183GC-N428C L373R Long; test: as above
[29] = biological target: RB94 sc9 DS-CAV1 A149C-Y458C L373R; test: as above
[30] = biological target: 391-2-DS-Cav1-sc9deleteFS 100C-361C; test: as above
[31] = biological target: sc9-10_DS-CAV1_bRSV(RB94)_Fd_hp1_ig1; test: as above

## motavizumab (antibody)
[1]
  response level (biolayer interferometry): 0.5 nm
[2]
  ELISA binding value: 0.448
[3]
  ELISA binding value: 1.75
[4]
  ELISA binding value: 0.595
[5]
  ELISA binding value: 1.68
[6]
  ELISA binding value: 2.22
[7]
  ELISA binding value: 1.04
[8]
  ELISA binding value: 2.21
[9]
  ELISA binding value: 0.589
391-2-DSCav1- F-SC_7R
  ELISA binding value: 0.649
391-2-DS-Cav1-IP-5
  ELISA binding value: 1.83
391-2-DS-Cav1-IP-4
  ELISA binding value: 0.933
[10]
  ELISA binding value: 1.63
391-2-DS-Cav1-BZGJ9_gyc1
  ELISA binding value: 2.12
[11]
  ELISA binding value: 0.75
[12]
  ELISA binding value: 0.512
[13]
  ELISA binding value: 2.08
[14]
  ELISA binding value: 0.545
[15]
  ELISA binding value: 2.52
[16]
  ELISA binding value: 1.31
391-2wt-F_SC_11R
  ELISA binding value: 1.79
391-2-DS-Cav1-BZGJ9 Long
  ELISA binding value: 1.55
[17]
  ELISA binding value: 0.606
[18]
  ELISA binding value: 1.7
[19]
  ELISA binding value: 0.486
[20]
  ELISA binding value: 0.511
[21]
  ELISA binding value: 2.18
[22]
  ELISA binding value: 1.32
[23]
  ELISA binding value: 1.86
391-2-DS-Cav1-BZGJ9_gyc7
  ELISA binding value: 0.977
[24]
  ELISA binding value: 0.569
[25]
  ELISA binding value: 1.8
[26]
  ELISA binding value: 0.487
391-2wt_F-SC_12R core
  ELISA binding value: 0.821
[27]
  ELISA binding value: 0.49
[28]
  ELISA binding value: 0.488
[29]
  ELISA binding value: 0.564
[30]
  ELISA binding value: 0.477
[31]
  ELISA binding value: 2.42
